The target of this experiment is IQ motif containing GTPase activating protein 1 (IQGAP1), endogenous in differentiated HL-60 cells (human (endogenous in HL-60)) (UniProt P46940). The experiment can be described thus: co-IP; rabbit anti-IQGAP1 antibody and Protein A/G agarose; lysates of differentiated HL-60 cells expressing CXCR2, vehicle or 100 ng/ml CXCL8 for 1 or 5 min; western blot for Cdc42, densitometry. (In general: A western blot detects proteins with antibodies after separation by electrophoresis.)
IQ motif containing GTPase activating protein 1 (IQGAP1), endogenous in differentiated HL-60 cells (human (endogenous in HL-60)), sequence (P46940 whole entry): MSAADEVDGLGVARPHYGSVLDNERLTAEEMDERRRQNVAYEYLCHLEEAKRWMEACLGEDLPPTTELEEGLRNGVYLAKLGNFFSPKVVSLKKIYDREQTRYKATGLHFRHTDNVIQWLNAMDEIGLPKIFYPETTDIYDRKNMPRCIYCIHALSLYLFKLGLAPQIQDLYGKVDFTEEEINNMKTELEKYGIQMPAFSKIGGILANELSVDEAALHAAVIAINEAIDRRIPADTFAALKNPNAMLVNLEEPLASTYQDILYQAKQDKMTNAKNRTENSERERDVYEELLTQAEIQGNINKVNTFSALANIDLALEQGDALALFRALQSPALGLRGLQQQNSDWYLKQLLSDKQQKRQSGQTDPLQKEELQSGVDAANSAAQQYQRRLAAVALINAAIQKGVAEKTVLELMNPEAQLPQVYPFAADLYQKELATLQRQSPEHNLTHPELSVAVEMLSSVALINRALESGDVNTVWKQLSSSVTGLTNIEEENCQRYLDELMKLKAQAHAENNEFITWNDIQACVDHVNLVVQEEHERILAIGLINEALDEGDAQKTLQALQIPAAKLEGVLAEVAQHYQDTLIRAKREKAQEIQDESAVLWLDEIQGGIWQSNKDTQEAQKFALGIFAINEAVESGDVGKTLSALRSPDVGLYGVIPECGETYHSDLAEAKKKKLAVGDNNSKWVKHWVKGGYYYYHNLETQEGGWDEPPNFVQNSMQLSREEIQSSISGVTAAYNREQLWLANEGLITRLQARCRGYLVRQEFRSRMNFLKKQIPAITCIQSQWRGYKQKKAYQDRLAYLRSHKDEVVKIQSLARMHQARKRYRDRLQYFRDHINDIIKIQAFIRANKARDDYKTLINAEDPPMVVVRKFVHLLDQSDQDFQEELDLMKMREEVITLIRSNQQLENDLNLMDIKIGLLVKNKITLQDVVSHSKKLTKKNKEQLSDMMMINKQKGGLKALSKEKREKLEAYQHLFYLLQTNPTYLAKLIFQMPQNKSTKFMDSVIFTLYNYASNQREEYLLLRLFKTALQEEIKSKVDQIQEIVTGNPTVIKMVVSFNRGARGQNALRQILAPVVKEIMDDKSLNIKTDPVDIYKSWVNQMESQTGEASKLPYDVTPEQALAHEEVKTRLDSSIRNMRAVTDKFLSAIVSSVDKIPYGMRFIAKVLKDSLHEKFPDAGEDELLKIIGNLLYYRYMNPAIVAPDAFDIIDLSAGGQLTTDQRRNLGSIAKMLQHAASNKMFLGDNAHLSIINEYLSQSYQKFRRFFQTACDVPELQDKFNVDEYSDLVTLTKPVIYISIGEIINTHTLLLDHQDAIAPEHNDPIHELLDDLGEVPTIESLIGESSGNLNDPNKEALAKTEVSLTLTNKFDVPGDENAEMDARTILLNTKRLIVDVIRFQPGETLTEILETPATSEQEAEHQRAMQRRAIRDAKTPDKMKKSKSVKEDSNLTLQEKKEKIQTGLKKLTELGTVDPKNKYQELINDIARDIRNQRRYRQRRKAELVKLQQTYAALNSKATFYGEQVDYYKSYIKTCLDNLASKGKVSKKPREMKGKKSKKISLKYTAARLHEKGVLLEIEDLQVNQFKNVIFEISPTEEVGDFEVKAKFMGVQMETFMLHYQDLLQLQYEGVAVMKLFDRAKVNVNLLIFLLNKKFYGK

Cdc42, endogenous in differentiated HL-60 cells expressing CXCR2, P60953 1-191 (natural protein; other documents disagree on this pair), sequence (P60953 whole entry): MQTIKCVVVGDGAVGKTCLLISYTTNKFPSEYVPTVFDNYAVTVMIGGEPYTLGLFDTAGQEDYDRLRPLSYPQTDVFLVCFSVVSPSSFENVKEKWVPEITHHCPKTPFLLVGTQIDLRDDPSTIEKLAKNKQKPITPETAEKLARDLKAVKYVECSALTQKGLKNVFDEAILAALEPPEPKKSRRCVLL

In the case of “Cdc42, endogenous in differentiated HL-60 cells expressing CXCR2, P60953 1-191 (natural protein; other documents disagree on this pair)”, the fold increase in co-immunoprecipitated Cdc42 after 1 min of CXCL8 over untreated cells came out at 1.36 fold.
